Target: SMAD4 (rSMAD4) (UniProt Q13485 1-552)
Assay: MST; 100 nM aptamer; FAM label inferred for MST; MST: 20 mM Tris-HCl pH 7.4, 5 mM KCl, 500 mM NaCl, temperature not stated; pull-down: plasma diluted twice with 10 mM Tris-HCl pH 7.4, 150 mM NaCl plus 0.85 M NaCl, RT, 30 min
Details: protein: recombinant; tags: N-terminal His6; label: 3'-FAM; hairpin, 16 bp stem, TTTT loop, 3' A5 tail

SMAD4 (rSMAD4), sequence (Q13485 whole entry): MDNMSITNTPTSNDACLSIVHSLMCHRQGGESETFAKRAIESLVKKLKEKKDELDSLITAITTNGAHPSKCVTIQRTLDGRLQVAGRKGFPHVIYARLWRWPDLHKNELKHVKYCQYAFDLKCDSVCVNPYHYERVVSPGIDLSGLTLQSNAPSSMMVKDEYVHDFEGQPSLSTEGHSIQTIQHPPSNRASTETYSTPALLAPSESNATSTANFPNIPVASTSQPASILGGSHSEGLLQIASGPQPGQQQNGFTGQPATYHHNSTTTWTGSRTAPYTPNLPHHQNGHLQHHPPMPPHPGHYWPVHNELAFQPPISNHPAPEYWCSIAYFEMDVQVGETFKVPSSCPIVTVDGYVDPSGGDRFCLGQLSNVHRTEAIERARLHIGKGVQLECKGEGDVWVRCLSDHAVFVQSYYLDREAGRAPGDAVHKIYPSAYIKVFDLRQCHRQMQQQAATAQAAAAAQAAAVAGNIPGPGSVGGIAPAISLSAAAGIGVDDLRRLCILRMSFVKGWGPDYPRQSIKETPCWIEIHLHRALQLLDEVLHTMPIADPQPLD

CGAAGTCTAGACAGCGTTTTCGCTGTCTAGACTTCGAAAAA (structured_DNA) [Anti-SMAD4 aptamer, 3'-FAM]
Kd: 45 ± 7 nM

From publication PMC7277749, “Evaluation of Aptamers as Affinity Reagents for an Enhancement of SRM-Based Detection of Low-Abundance Proteins in Blood Plasma”
